The record followed here is the Immune Epitope Database (IEDB).

In one test the target is HLA-A*24:02. The experiment in a line: IEDB peptide-MHC binding, purified MHC/direct/fluorescence; filed as Kd, often an IC50 or EC50 that approximates it; ≥ and ≤ were set here for values at or beyond the usual limits of such assays.
Another test has as its target HLA-A*11:01. The description is as above.
Another test deals with HLA-B*58:01. Described as above.
Another test has as its target HLA-B*44:02. The description is as above.
In test [1] the target is HLA-B*15:01. The description is as above.
The target of test [2] is HLA-A*01:01. The description is as above.
In another test the target is HLA-B*08:01. The test is described as above.
A further test has as its target HLA-A*03:01. The description is as above.
The target in the next test is HLA-A*31:01. The description is as above.
The target in the next test is HLA-A*26:01. Described as above.
The target in the next test is HLA-B*07:02. Described as above.
Test [3] concerns the target HLA-A*02:01. The test is described as above.
In a further test the target is HLA-A*69:01. The description is as above.
The target of the next test is HLA-B*35:01. The test is described as above.
Test [4] has as its target HLA-B*40:01. The test is described as above.
The target of test [5] is HLA-A*24:03. The test is described as above. The note with it: source organism: Rickettsia prowazekii.
The next test concerns the target HLA-B*27:05. The test is described as above.
The next test concerns the target HLA-B*48:01. The experiment in a line: IEDB peptide-MHC binding, purified MHC/competitive/fluorescence; filed as Kd, often an IC50 or EC50 that approximates it; ≥ and ≤ were set here for values at or beyond the usual limits of such assays.
For test [6], the target named is HLA-A*24:03. The description is as above. The settings on record: source organism: Escherichia coli str. K-12 substr. MG1655.
The target of a further test is HLA-B*46:01. The experiment in a line: IEDB peptide-MHC binding, purified MHC/direct/fluorescence; filed as Kd, often an IC50 or EC50 that approximates it; ≥ and ≤ were set here for values at or beyond the usual limits of such assays.
A further test concerns the target HLA-B*08:02. The description is as above.
Another test addresses HLA-B*18:01. The description is as above.
Test [7] concerns the target HLA-A*01:01. Kind of test: IEDB peptide-MHC binding, purified MHC/competitive/fluorescence; ≥ and ≤ were set here for values at or beyond the usual limits of such assays.
Test [8] has as its target HLA-A*02:01. The test is described as above.
A further test addresses HLA-A*30:01. Kind of test: IEDB peptide-MHC binding, purified MHC/direct/fluorescence; filed as Kd, often an IC50 or EC50 that approximates it; ≥ and ≤ were set here for values at or beyond the usual limits of such assays. The note with it: source organism: Escherichia coli.
A further test has as its target HLA-B*15:09. The description is as above. The note with it: source organism: Influenza A virus(A/swine/Henan/8/2004(H9N2)).
Test [9] has as its target HLA-B*15:01. The experiment in a line: IEDB peptide-MHC binding, purified MHC/competitive/fluorescence; ≥ and ≤ were set here for values at or beyond the usual limits of such assays. The note with it: source organism: Vaccinia virus.
The next test deals with HLA-B*39:01. Kind of test: IEDB peptide-MHC binding, purified MHC/competitive/fluorescence; filed as Kd, often an IC50 or EC50 that approximates it; ≥ and ≤ were set here for values at or beyond the usual limits of such assays. The note with it: source organism: Yersinia pestis Nepal516.
The target of test [10] is HLA-A*02:01. The description is as above. The settings on record: source organism: Yersinia pestis Nepal516.
In test [11] the target is HLA-B*40:01. The description is as above.
Test [12] has as its target HLA-A*02:01. The experiment in a line: IEDB peptide-MHC binding, purified MHC/competitive/radioactivity; ≥ and ≤ were set here for values at or beyond the usual limits of such assays.
Setting [13] is: source organism: Rickettsia prowazekii.
Setting [14] is: source organism: Giardia lamblia ATCC 50803.
Setting [15] is: source organism: Vibrio parahaemolyticus.
Where [16] appears, read: source organism: Escherichia coli.
Where [17] appears, read: source organism: Shigella dysenteriae.
Setting [18] is: source organism: Influenza A virus (A/duck/Korea/S10/03(H3N2)).
The mark [19] stands for this setting: source organism: Zaire ebolavirus.
Where [20] appears, read: source organism: Influenza A virus (A/South Carolina/1/1918(H1N1)).

As for DYLTTYFTW, in the test with HLA-A*24:02 (source organism: Bacillus anthracis str. A0488), the Kd (as a rule, the constant that tells how readily two partners part at equilibrium) is at most 0.001 µM.
For the sequence NLKLYGAEF, the Kd with HLA-A*11:01 (setting [13]) is at least 20 µM; in the test with HLA-B*58:01 (setting [13]), at least 20 µM; with HLA-B*44:02 (setting [13]) it was at least 20 µM; in the test with HLA-B*15:01 [1] (setting [13]) it was 0.133 µM; with HLA-A*01:01 [2] (setting [13]) it was at least 20 µM; with HLA-B*08:01 (setting [13]) it was 0.433 µM. Besides, the Kd in the test with HLA-A*03:01 (setting [13]), in the test with HLA-A*31:01 (setting [13]), in the test with HLA-A*26:01 (setting [13]), with HLA-B*07:02 (setting [13]), with HLA-A*02:01 [3] (setting [13]) and in the test with HLA-A*69:01 (setting [13]) was at least 20 µM each time. The Kd in the test with HLA-B*35:01 (setting [13]) was 0.281 µM; in the test with HLA-B*40:01 [4] (setting [13]), at least 20 µM; in the test with HLA-A*24:03 [5] it was 11.6 µM; with HLA-B*27:05 (setting [13]) it was at least 20 µM.
In turn, IWIKLSYLW came in with a Kd with HLA-A*24:02 (source organism: Cryptosporidium parvum Iowa II) of 0.01 µM.
RQWFIDVPL had a Kd in the test with HLA-B*48:01 (source organism: dengue virus type 2) of 0.0684 µM.
In the test with HLA-B*48:01 (source organism: Vibrio vulnificus CMCP6), RQGKPDWLL had a Kd of 0.124 µM.
Take IYPGVNHGF: the Kd with HLA-A*24:03 [6] came out at 0.0003 µM.
In the case of VSSKKCTAL, the Kd in the test with HLA-A*11:01 (setting [14]), with HLA-B*58:01 (setting [14]), with HLA-B*46:01 (setting [14]), with HLA-A*24:02 (setting [14]), with HLA-B*44:02 (setting [14]) and in the test with HLA-B*15:01 [1] (setting [14]) was at least 20 µM in each case. The Kd with HLA-A*01:01 [2] (setting [14]) is at least 20 µM; with HLA-B*08:01 (setting [14]) it was 17.7 µM; with HLA-A*03:01 (setting [14]) it was at least 20 µM; in the test with HLA-B*08:02 (setting [14]), at least 20 µM; in the test with HLA-B*18:01 (setting [14]), at least 20 µM; with HLA-A*31:01 (setting [14]), at least 20 µM. The Kd with HLA-A*26:01 (setting [14]), in the test with HLA-B*07:02 (setting [14]), with HLA-A*02:01 [3] (setting [14]), in the test with HLA-A*69:01 (setting [14]), in the test with HLA-B*40:01 [4] (setting [14]) and with HLA-B*27:05 (setting [14]) was at least 20 µM each time.
For the sequence RALAYDPAL, the Kd with HLA-B*48:01 (source organism: Burkholderia mallei SAVP1) was determined as 0.0808 µM.
As for YPKCDLVEL, the Kd in the test with HLA-A*11:01 (setting [15]) is at least 20 µM; in the test with HLA-B*58:01 (setting [15]) it was at least 20 µM; with HLA-B*44:02 (setting [15]), at least 20 µM; with HLA-B*15:01 [1] (setting [15]) it was at least 20 µM; with HLA-A*01:01 [2] (setting [15]) it was at least 20 µM; in the test with HLA-B*08:01 (setting [15]), 0.54 µM. Further, the Kd in the test with HLA-A*03:01 (setting [15]) was at least 20 µM; with HLA-A*31:01 (setting [15]) it was at least 20 µM; with HLA-A*26:01 (setting [15]), at least 20 µM; in the test with HLA-B*07:02 (setting [15]), 0.224 µM; with HLA-A*02:01 [3] (setting [15]), at least 20 µM; in the test with HLA-A*69:01 (setting [15]), 0.177 µM. Besides, the Kd with HLA-B*35:01 (setting [15]) was 0.00816 µM; in the test with HLA-B*40:01 [4] (setting [15]) it was at least 20 µM; in the test with HLA-B*27:05 (setting [15]), at least 20 µM.
Turning to ITDFHERPV, the IC50 (commonly the concentration needed to halve the response being measured) with HLA-A*01:01 [7] (source organism: Variola virus) was 6.25 µM; in the test with HLA-A*02:01 [8] (source organism: Variola virus) it was 5.75 µM.
Regarding TTFPVNGGY, the Kd with HLA-A*11:01 (setting [16]) was 5.77 µM; with HLA-B*58:01 (setting [16]), at least 10 µM; with HLA-B*44:02 (setting [17]), at least 20 µM; with HLA-B*15:01 [1] (setting [16]) it was 0.165 µM; in the test with HLA-A*01:01 [2] (setting [16]) it was 0.345 µM; in the test with HLA-B*08:01 (setting [17]), at least 20 µM. The Kd in the test with HLA-A*03:01 (setting [16]) is 1.46 µM; with HLA-A*31:01 (setting [17]), at least 20 µM; with HLA-A*26:01 (setting [16]) it was 0.0228 µM; with HLA-B*07:02 (setting [17]), at least 20 µM; with HLA-A*02:01 [3] (setting [17]) it was at least 20 µM; with HLA-A*69:01 (setting [16]), 0.334 µM. Besides, the Kd is 0.097 µM with HLA-B*35:01 (setting [16]), at least 20 µM with HLA-B*40:01 [4] (setting [17]), 16 µM in the test with HLA-A*30:01 and at least 20 µM with HLA-B*27:05 (setting [17]).
With PAHKSQLVW, the Kd with HLA-A*11:01 (setting [18]) was at least 20 µM; in the test with HLA-B*58:01 (setting [18]), 2.21 µM; with HLA-B*46:01 (setting [18]), at least 20 µM; with HLA-A*24:02 (setting [18]), at least 20 µM; with HLA-B*44:02 (setting [18]), at least 20 µM; in the test with HLA-B*15:01 [1] (setting [18]), at least 20 µM. In addition, the Kd with HLA-A*01:01 [2] (setting [18]), in the test with HLA-B*08:01 (setting [18]), with HLA-A*03:01 (setting [18]), in the test with HLA-B*18:01 (setting [18]), with HLA-A*31:01 (setting [18]) and in the test with HLA-A*26:01 (source organism: Influenza A virus(A/swine/Henan/8/2004(H9N2))) was at least 20 µM throughout. Also, the Kd with HLA-B*07:02 (setting [18]), with HLA-B*15:09, with HLA-A*02:01 [3] (setting [18]), with HLA-A*69:01 (setting [18]), with HLA-B*40:01 [4] (setting [18]) and with HLA-B*27:05 (setting [18]) was at least 20 µM each time.
For NTSKSTDFL, the IC50 in the test with HLA-A*01:01 [7] (setting [19]) was at least 191 µM; with HLA-A*02:01 [8] (setting [19]), at least 495 µM.
In the case of PSIATNLEY, the figures for the IC50 with HLA-B*15:01 [9] and with HLA-A*01:01 [7] (source organism: Vaccinia virus) were 43.7 µM and 15.2 µM, respectively.
On to TQFGVPFVL, for which the Kd in the test with HLA-B*39:01 came out at 0.0003 µM; with HLA-A*02:01 [10], 0.0135 µM; in the test with HLA-B*40:01 [11] (source organism: Yersinia pestis Nepal516) it was 0.205 µM.
On to RLFFKCIYR, for which the Kd with HLA-B*58:01 (setting [20]), in the test with HLA-B*46:01 (setting [20]), with HLA-A*24:02 (setting [20]), with HLA-B*44:02 (setting [20]), in the test with HLA-B*15:01 [1] (setting [20]) and in the test with HLA-A*01:01 [2] (setting [20]) was at least 20 µM throughout. The Kd with HLA-B*08:01 (setting [20]) is at least 20 µM; with HLA-A*03:01 (source organism: Influenza A virus (A/Puerto Rico/8/34/Mount Sinai(H1N1))), 0.146 µM; with HLA-B*08:02 (source organism: Influenza A virus H3N2), at least 20 µM; in the test with HLA-B*18:01 (setting [20]), at least 20 µM; with HLA-B*07:02 (setting [20]) it was at least 20 µM; with HLA-A*02:01 [3] (setting [20]), at least 20 µM. Further, the Kd with HLA-B*40:01 [4] (setting [20]) and with HLA-B*27:05 (setting [20]) was at least 20 µM throughout.
The sequence VESKNFADF returned a Kd in the test with HLA-B*40:01 [11] (source organism: Bacillus cereus G9241) of 0.418 µM.
As to FLPADFFPSV, the IC50 with HLA-A*02:01 [12] (source organism: Hepatitis B virus) amounted to 0.0012 µM.
For the sequence PTLDKVLEL, the IC50 in the test with HLA-A*02:01 [12] (source organism: Homo sapiens) turned out to be 10 µM.
On the same count and under the same terms, under RTLDKVLEV stands 0.04 µM.
